The source of these data is patent publication US20230248770A1 (published 2023).

Assay [1] addresses T1, WT1 peptide on HLA-A*02:01 (human).
T1 peptide: RMFPNAPYL
Description: activation reporter or marker.

For assay [2], the target named is T2, NEF peptide on HLA-A*24:02 (human).
T2 peptide: RYPLTFGWCF
The experiment in a line: cytokine release.

B1: FE11 γδTCR (TCR, V domains shown)
Vgamma: SSNLEGGTKSVTRPTRSSAEITCDLTVINAFYIHWYLHQEGKAPQRLLYYDVSNSKDVLESGLSPGKYYTHTPRRWSWILILRNLIENDSGVYYCATWDRPEIYYKKLFGSGTTLVVT
Vdelta: not shown
Turning to B1, the binding result in assay [1] and in assay [2] was “no recognition” each time.
